Assay results taken from publication PMC3360003.

Legend:
[1] = target: Influenza A virus matrix 1 (M1) protein with a C-terminal His6-tag (Influenza A virus A/chicken/Jiangsu/1/1998 (H9N2)); test: […]; 0.2% ([…], pH 8.0, room temperature, 5 min; […]
[2] = target: Influenza A virus matrix 1 (M1) protein with a C-terminal His6-tag (Influenza A virus A/chicken/Jiangsu/1/1998 (H9N2)); test: SEC
[3] = target: Influenza A virus matrix 1 (M1) protein with a C-terminal His6-tag (Influenza A virus A/chicken/Jiangsu/1/1998 (H9N2)); test: SEC; […], pH 5.0, 25°C; […]

Measured: stoichiometry N

Influenza A virus matrix 1 (M1) protein with a C-terminal His6-tag (natural protein)
2: all assays above
